Source: paper PMC5382172 (Frontiers in Molecular Neuroscience, 2017)
Residue numbers refer to the chain shown, from its start. Names may count otherwise. Each block holds one binder with its values, some of them ahead of it.

Molecular target: T1, C. elegans GluClβWT subunit (GLC-2) (C. elegans) (UniProt Q17328)
T1 sequence: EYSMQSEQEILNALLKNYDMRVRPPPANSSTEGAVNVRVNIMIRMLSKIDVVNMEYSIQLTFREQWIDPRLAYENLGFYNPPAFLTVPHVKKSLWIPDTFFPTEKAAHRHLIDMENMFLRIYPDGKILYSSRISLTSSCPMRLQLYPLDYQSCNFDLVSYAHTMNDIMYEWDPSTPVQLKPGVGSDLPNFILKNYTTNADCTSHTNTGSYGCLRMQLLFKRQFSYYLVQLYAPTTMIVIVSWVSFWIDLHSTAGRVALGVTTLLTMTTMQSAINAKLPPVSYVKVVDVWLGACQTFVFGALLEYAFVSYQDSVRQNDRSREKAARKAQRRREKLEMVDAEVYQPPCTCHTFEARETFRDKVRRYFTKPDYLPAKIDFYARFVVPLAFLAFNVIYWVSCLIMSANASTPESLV

B2: C. elegans GluClα (GLC-1) subunit, SSS→GSD (positions 236–238) (receptor)
chain: QQARTKSQDIFEDDNDNGTTTLESLARLTSPIHIPIEQPQTSDSKILAHLFTSGYDFRVRPPTDNGGPVVVSVNMLLRTISKIDVVNMEYSAQLTLRESWIDKRLSYGVKGDGQPDFVILTVGHQIWMPDTFFPNEKQAYKHTIDKPNVLIRIHNDGTVLYSVRISLVLSCPMYLQYYPMDVQQCSIDLASYAYTTKDIEYLWKEHSPLQLKVGLGSDLPSFQLTNTSTTYCTSVTNTGIYSCLRTTIQLKREFSFYLLQLYIPSCMLVIVSWVSFWFDRTAIPARVTLGVTTLLTMTAQSAGINSQLPPVSYIKAIDVWIGACMTFIFCALLEFALVNHIANKQGVERKARTEREKAEIPLLQNLHNDVPTKVFNQEEKVRTVPLNRRQMNSFLNLLETKTEWNDISKRVDLISRALFPVLFFVFNILYWSRFGQQNVLF
whole-cell current amplitude in response to the Glu-EC50 concentration, CHO cells co-transfected with both subunits, +60 mV: 2.9 nA

B3: C. elegans GluClα (GLC-1) subunit, E273R (receptor)
chain: B2 chain with G216S, D218S, E253R
whole-cell current amplitude in response to the Glu-EC50 concentration, CHO cells co-transfected with both subunits, +60 mV: 2.2 nA

B5: C. elegans GluClα (GLC-1) subunit, P192M (receptor)
chain: B2 chain with P172M, G216S, D218S
whole-cell current amplitude in response to the Glu-EC50 concentration, CHO cells co-transfected with both subunits, +60 mV: 3.2 nA

Further lines, results first:

whole-cell current amplitude in response to the Glu-EC50 concentration, CHO cells co-transfected with both subunits, +60 mV: 5.9 nA
B1: C. elegans GluClα (GLC-1) subunit, Y194R (receptor)
chain: B2 chain with Y174R, G216S, D218S

whole-cell current amplitude in response to the Glu-EC50 concentration, CHO cells co-transfected with both subunits, +60 mV: 2.1 nA
B4: C. elegans GluClα (GLC-1) subunit, P192Y (receptor)
chain: B2 chain with P172Y, G216S, D218S
